For one protein, 15ELXA production and LTB4 production results are on record in patent US20090042849.

The target of one data set is T1, cycloxygenase-2, P35355.
T1 chain: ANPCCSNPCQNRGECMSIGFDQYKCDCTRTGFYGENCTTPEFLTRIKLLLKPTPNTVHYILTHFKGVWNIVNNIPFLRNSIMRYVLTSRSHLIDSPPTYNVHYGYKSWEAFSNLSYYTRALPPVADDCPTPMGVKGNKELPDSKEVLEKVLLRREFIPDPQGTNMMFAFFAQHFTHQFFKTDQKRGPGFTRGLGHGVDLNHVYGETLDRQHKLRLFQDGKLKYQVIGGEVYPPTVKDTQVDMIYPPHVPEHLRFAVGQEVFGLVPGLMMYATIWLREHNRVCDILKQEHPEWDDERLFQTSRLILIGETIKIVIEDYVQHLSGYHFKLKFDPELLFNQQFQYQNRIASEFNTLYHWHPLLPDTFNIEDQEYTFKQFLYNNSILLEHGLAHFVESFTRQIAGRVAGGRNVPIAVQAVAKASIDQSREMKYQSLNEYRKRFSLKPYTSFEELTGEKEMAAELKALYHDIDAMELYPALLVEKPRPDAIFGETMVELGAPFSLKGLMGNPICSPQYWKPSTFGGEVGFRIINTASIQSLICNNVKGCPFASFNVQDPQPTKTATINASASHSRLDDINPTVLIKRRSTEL

Data set [1] has as its target T2, cytosolic phospholipase A2, P50393.
T2 chain: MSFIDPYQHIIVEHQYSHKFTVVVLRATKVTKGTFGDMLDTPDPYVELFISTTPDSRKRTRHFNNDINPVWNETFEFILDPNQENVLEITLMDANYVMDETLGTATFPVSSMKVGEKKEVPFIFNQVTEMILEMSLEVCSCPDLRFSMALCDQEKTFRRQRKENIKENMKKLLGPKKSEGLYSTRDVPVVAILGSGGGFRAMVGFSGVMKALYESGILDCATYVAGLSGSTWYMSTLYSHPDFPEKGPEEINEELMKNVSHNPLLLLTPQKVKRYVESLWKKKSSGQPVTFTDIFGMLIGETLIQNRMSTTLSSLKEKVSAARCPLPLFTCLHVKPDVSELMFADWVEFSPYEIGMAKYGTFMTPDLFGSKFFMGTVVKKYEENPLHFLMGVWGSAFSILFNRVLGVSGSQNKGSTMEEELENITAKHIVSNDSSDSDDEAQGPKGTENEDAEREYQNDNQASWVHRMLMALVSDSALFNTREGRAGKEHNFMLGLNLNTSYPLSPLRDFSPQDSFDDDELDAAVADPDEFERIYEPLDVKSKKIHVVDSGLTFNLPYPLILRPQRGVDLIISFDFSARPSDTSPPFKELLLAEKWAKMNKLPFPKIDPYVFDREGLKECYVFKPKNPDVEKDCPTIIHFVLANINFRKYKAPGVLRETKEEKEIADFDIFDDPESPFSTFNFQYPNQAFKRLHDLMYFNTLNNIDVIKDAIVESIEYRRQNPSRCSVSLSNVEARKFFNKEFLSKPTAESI

B1: 5-lipoxygenase (protein)
chain: MPSYTVTVATGSQWFAGTDDYIYLSLIGSAGCSEKHLLDKAFYNDFERGGRDSYDVTVDEELGEIYLVKIEKRKYRLHDDWYLKYITLKTPHDYIEFPCYRWITGEGEIVLRDGCAKLARDDQIHILKQHRRKELETRQKQYRWMEWNPGFPLSIDAKCHKDLPRDIQFDSEKGVDFVLNYSKAMENLFINRFMHMFQSSWHDFADFEKIFVKISNTISERVKNHWQEDLMFGYQFLNGCNPVLIKRCTELPKKLPVTTEMVECSLERQLSLEQEVQEGNIFIVDYELLDGIDANKTDPCTHQFLAAPICLLYKNLANKIVPIAIQLNQTPGEKNPIFLPTDSKYDWLLAKIWVRSSDFHIHQTITHLLRTHLVSEVFGIAMYRQLPAVHPLFKLLVAHVRFTIAINTKAREQLNCEYGLFDKANATGGGGHVQMVQRAVQDLTYSSLCFPEAIKARGMDNTEDIPYYFYRDDGLLVWEAIQSFTTEVVSIYYEDDQVVEEDQELQDFVKDVYVYGMRGRKASGFPKSIKSREKLSEYLTVVIFTASAQHAAVNFGQYDWCSWIPNAPPTMRAPPPTAKGVVTIEQIVDTLPDRGRSCWHLGAVWALSQFQENELFLGMYPEEHFIEKPVKEAMIRFRKNLEAIVSVIAERNKNKKLPYYYLSPDRIPNSVAI
As to B1, the 15ELXA production entry with cycloxygenase-2, P35355 was “it interacted with COX2 in the cytosolic fraction (FIG. 11) to generate 15ELXA (FIG. 9A)”. For the same protein, the LTB4 production in data set [1] was 5-lipoxygenase co-immunoprecipitated with cPLA2 (FIG. 10) and metabolized arachidonic acid, generated by cPLA2, into LTB4.
